The target of the data set is HIF-1 (HIF-1alpha/HIF-1beta (ARNT) heterodimer) (Homo sapiens?, UniProt Q16665;P27540 Q16665:1-826,P27540:2-789). Put plainly: competition; TransAM. As to conditions: protein: extract; tags: none (endogenous, nuclear extract). How it is done: To assess the relative affinities of oligonucleotides for a HIF-1α containing complex, the HIF-1 TransAM assay (Active Motif, Catalog # 47096) was utilized. The assay was performed according to manufacturer's instructions. Briefly, a double-stranded oligonucletide containing the hypoxia response element (HRE) was immobilized on a 96-well plate. A nuclear extract containing HIF-1α complexes was incubated and allowed to bind to the immobilized oligonucleotide. The unbound material was washed away and the bound HIF-1α detected using an antibody that specificially recognizes HIF-1α. The anti-HIF-1α antibody was detected by a secondary antibody labeled with horseradish peroxidase (HRP), and the amount of HRP in each well was measured using a calorimetric substrate reaction and read using a microplate spectrophotometer.
HIF-1 (HIF-1alpha/HIF-1beta (ARNT) heterodimer), sequence (Q16665 whole entry, chain 1 of 2): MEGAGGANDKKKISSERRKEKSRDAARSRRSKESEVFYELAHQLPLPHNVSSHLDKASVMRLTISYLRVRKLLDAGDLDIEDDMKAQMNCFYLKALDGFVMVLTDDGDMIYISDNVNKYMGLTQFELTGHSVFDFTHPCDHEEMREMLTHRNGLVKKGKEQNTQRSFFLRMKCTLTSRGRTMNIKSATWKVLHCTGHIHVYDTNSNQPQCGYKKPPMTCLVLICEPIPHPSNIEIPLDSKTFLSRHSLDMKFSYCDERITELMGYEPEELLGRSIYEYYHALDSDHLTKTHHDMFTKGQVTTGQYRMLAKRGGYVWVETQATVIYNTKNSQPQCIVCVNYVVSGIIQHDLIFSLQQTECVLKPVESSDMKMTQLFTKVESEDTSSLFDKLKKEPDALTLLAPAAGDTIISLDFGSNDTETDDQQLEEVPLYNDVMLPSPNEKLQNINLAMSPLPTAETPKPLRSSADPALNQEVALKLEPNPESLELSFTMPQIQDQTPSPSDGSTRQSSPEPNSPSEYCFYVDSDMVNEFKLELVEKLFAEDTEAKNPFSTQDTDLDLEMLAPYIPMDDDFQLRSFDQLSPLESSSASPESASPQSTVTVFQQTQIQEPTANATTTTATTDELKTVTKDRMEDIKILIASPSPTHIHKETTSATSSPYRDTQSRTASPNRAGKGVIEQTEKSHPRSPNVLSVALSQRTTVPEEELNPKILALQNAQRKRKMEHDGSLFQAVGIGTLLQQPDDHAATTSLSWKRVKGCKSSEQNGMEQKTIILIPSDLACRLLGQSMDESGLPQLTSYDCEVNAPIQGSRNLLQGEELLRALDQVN
HIF-1 (HIF-1alpha/HIF-1beta (ARNT) heterodimer), sequence (P27540 2-789, chain 2 of 2): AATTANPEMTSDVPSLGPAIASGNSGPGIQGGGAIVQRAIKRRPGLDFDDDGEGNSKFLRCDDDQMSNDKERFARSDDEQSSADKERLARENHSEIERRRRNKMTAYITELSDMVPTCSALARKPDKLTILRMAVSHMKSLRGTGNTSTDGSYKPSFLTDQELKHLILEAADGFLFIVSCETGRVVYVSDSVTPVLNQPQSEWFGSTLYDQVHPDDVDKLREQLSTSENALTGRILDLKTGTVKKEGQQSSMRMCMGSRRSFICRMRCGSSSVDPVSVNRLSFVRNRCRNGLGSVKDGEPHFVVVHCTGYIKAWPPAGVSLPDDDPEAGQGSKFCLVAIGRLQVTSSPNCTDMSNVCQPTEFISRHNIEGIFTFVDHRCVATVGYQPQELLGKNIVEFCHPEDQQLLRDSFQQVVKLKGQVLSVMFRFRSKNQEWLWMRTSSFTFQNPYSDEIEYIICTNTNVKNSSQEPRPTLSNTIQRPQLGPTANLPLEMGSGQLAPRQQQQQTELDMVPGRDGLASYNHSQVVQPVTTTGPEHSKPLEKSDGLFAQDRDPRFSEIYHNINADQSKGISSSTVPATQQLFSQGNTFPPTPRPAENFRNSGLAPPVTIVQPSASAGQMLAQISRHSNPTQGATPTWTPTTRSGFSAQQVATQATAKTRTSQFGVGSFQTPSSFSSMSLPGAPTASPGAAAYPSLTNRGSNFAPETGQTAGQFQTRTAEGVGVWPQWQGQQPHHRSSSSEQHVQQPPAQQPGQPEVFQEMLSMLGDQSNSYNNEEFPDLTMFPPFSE
The ability of candidate decoy molecules to compete for binding of HIF-1α to the HRE element-immobilized on the plate were measured and compared to reveal relative binding affinities. Candidate decoys were added in increasing molar ratios (relative to the amount of oligo immobilized on the plate) to compete for binding to the HIF-1α containing complexes. The amounts of decoys added to the assay included 0.625, 1.25, 2.5, 5, 10 and 20 fold molar excess. A well containing a competing decoy able to bind HIF-1α with high affinity would give a lower absorbance reading as compared to a decoy with low affinity for HIF-1α. All potential decoys were then compared and ranked in order to assess their relative binding affinities.
The screen was conducted using different decoy concentrations. For each UV absorbance reading, normalization was done by calculating the ratio of absorbance readings of sample vs. wild type control. The bigger ratio represents less competition of binding with HIF-1α when compared with wild-type control. The smaller (smaller than 1.0 or close to 1.0) ratios represent better binding or better competition.

B1: decoy 867/868 (dsDNA)
DNA 1: TCCGTACGTGCTGCAC
DNA 2: GTGCAGCACGTACGGA
On to B1, for which the binding signal was determined as 2.63 ratio.

B2: decoy 877/878 (dsDNA)
DNA 1: ACCGTACGTGCTGCTA
DNA 2: TAGCAGCACGTACGGT
Consider B2, for which the binding signal turned out to be 2.23 ratio.

B3: decoy 833/834 (dsDNA)
DNA 1: TCCAATGCGTGCAGTACT
DNA 2: AGTACTGCACGCATTGGA
In turn, B3 had a binding signal of 3.05 ratio.

B4: decoy 813/814 (dsDNA)
DNA 1: GCCCTACGTGCTGTCTCACACAGC
DNA 2: GCTGTGTGAGACAGCACGTAGGGC
For B4, the binding signal was 4.6 ratio.

B5: decoy 965 (dsDNA)
DNA 1: CCAGCTTACGTGCCTCAGG
DNA 2: CCTGAGGCACGTAAGCTGG
B5 returned a binding signal of 1.61 ratio.

B6: decoy 837/838 (dsDNA)
DNA 1: AGGCAACGTGCAGCCG
DNA 2: CGGCTGCACGTTGCCT
For the molecule B6, the binding signal turned out to be 3.74 ratio.

B7: decoy 951 (dsDNA)
DNA 1: CCAGCGTACGTCCCTCAGG
DNA 2: CCTGAGGGACGTACGCTGG
The molecule B7 showed a binding signal of 2.91 ratio.

B8: decoy 931 (dsDNA)
DNA 1: CCAGCGTCCGTGCCTCAGG
DNA 2: CCTGAGGCACGGACGCTGG
With B8, the binding signal worked out at 3.44 ratio.

B9: decoy 859/860 (dsDNA)
DNA 1: ACCGTACGTGCTGATC
DNA 2: GATCAGCACGTACGGT
Molecule B9 yielded a binding signal of 2.37 ratio.

B10: decoy 871/872 (dsDNA)
DNA 1: ACCGTACGTGCTGCCA
DNA 2: TGGCAGCACGTACGGT
The molecule B10 registered a binding signal of 2.21 ratio.

B11: decoy 821/822 (dsDNA)
DNA 1: CGCGAGCGTACGTGCCTCAGG
DNA 2: CCTGAGGCACGTACGCTCGCG
In turn, B11 had a binding signal of 1.33 ratio.

B12: decoy 993 (dsDNA)
DNA 1: CCAGCGTACGTGCCACAGG
DNA 2: CCTGTGGCACGTACGCTGG
B12: the binding signal was 0.93 ratio.

B13: decoy 949 (dsDNA)
DNA 1: CCAGCGTACGGGCCTCAGG
DNA 2: CCTGAGGCCCGTACGCTGG
Regarding B13, the binding signal came to 2.73 ratio.

B14: decoy 893 (dsDNA)
DNA 1: CACGAGCGTACGTGCCTCAGG
DNA 2: CCTGAGGCACGTACGCTCGTG
Regarding B14, the binding signal worked out at 0.94 ratio.

B15: decoy 807/808 (dsDNA)
DNA 1: TCTGTACGTGACCACACTCACCTC
DNA 2: GAGGTGAGTGTGGTCACGTACAGA
In turn, B15 yielded a binding signal of 2.76 ratio.

B16: decoy 957 (dsDNA)
DNA 1: CCAGCGCACGTGCCTCAGG
DNA 2: CCTGAGGCACGTGCGCTGG
Turning to B16, the binding signal stood at 1.41 ratio.

B17: decoy 945 (dsDNA)
DNA 1: CCAGCGTACGAGCCTCAGG
DNA 2: CCTGAGGCTCGTACGCTGG
In the case of B17, the binding signal was 3.14 ratio.

B18: decoy 995 (dsDNA)
DNA 1: CCAGCGTACGTGCCGCAGG
DNA 2: CCTGCGGCACGTACGCTGG
For the molecule B18, the binding signal turned out to be 0.92 ratio.

B19: decoy 847/848 (dsDNA)
DNA 1: GGAACAACGTGGAATTAG
DNA 2: CTAATTCCACGTTGTTCC
B19 displayed a binding signal of 3.02 ratio.

B20: decoy 979 (dsDNA)
DNA 1: CCATCGTACGTGCCTCAGG
DNA 2: CCTGAGGCACGTACGATGG
B20 yielded a binding signal of 1.41 ratio.

B21: decoy 989 (dsDNA)
DNA 1: CCAGCGTACGTGCTTCAGG
DNA 2: CCTGAAGCACGTACGCTGG
Regarding B21, the binding signal was found to be 1.21 ratio.

B22: decoy 953 (dsDNA)
DNA 1: CCAGCGTACGTACCTCAGG
DNA 2: CCTGAGGTACGTACGCTGG
The molecule B22 displayed a binding signal of 2.67 ratio.

B23: decoy 977 (dsDNA)
DNA 1: CCAACGTACGTGCCTCAGG
DNA 2: CCTGAGGCACGTACGTTGG
Take B23: the binding signal was determined as 1.43 ratio.

B24: decoy 899 (dsDNA)
DNA 1: CGAGCGTACGTGCCTCAGG
DNA 2: CCTGAGGCACGTACGCTCG
The molecule B24 registered a binding signal of 1.34 ratio.

B25: decoy 873/874 (dsDNA)
DNA 1: TCCGTACGTGCTGCGT
DNA 2: ACGCAGCACGTACGGA
For the molecule B25, the binding signal came out at 2.33 ratio.

B26: decoy 961 (dsDNA)
DNA 1: CCAGCGGACGTGCCTCAGG
DNA 2: CCTGAGGCACGTCCGCTGG
B26: the binding signal was found to be 1.65 ratio.

B27: decoy 975 (dsDNA)
DNA 1: CCACCGTACGTGCCTCAGG
DNA 2: CCTGAGGCACGTACGGTGG
With B27, the binding signal stood at 1.63 ratio.

B28: decoy 805/806 (dsDNA)
DNA 1: CCCCCTCGGACGTGACTCGGACCAC
DNA 2: GTGGTCCGAGTCACGTCCGAGGGGG
Turning to B28, the binding signal came out at 1.13 ratio.

B29: decoy 927 (dsDNA)
DNA 1: CCAGCGTTCGTGCCTCAGG
DNA 2: CCTGAGGCACGAACGCTGG
Molecule B29 displayed a binding signal of 3.16 ratio.

B30: decoy 947 (dsDNA)
DNA 1: CCAGCGTACGCGCCTCAGG
DNA 2: CCTGAGGCGCGTACGCTGG
B30 came in with a binding signal of 2.94 ratio.

B31: decoy 955 (dsDNA)
DNA 1: CCAGCGTACGTTCCTCAGG
DNA 2: CCTGAGGAACGTACGCTGG
The molecule B31 gave a binding signal of 2.4 ratio.

B32: decoy 905 (dsDNA)
DNA 1: GATCGCCCTACGTGCTGTCTCAGATC
DNA 2: GATCTGAGACAGCACGTAGGGCGATC
Consider B32, for which the binding signal stood at 1.54 ratio.

B33: decoy 943 (dsDNA)
DNA 1: CCAGCGTACTTGCCTCAGG
DNA 2: CCTGAGGCAAGTACGCTGG
B33 displayed a binding signal of 2.83 ratio.

B34: decoy 829/830 (dsDNA)
DNA 1: AGGAGACGTGCTGCCT
DNA 2: AGGCAGCACGTCTCCT
Molecule B34 displayed a binding signal of 5.12 ratio.

B35: decoy 941 (dsDNA)
DNA 1: CCAGCGTACCTGCCTCAGG
DNA 2: CCTGAGGCAGGTACGCTGG
B35: the binding signal was found to be 3.45 ratio.

B36: decoy 929 (dsDNA)
DNA 1: CCAGCGTGCGTGCCTCAGG
DNA 2: CCTGAGGCACGCACGCTGG
Regarding B36, the binding signal was 2.35 ratio.

B37: decoy 835/836 (dsDNA)
DNA 1: GGCCAGACGTGCCACCGG
DNA 2: CCGGTGGCACGTCTGGCC
B37 yielded a binding signal of 2.91 ratio.

B38: decoy 963 (dsDNA)
DNA 1: CCAGCCTACGTGCCTCAGG
DNA 2: CCTGAGGCACGTAGGCTGG
As for B38, the binding signal came to 1.17 ratio.

B39: decoy 939 (dsDNA)
DNA 1: CCAGCGTACATGCCTCAGG
DNA 2: CCTGAGGCATGTACGCTGG
In turn, B39 had a binding signal of 2.93 ratio.

B40: decoy 815/816 (dsDNA)
DNA 1: GTGAGACGTGCGGCTTCCGTTTG
DNA 2: CAAACGGAAGCCGCACGTCTCAC
As to B40, the binding signal amounted to 4.43 ratio.

B41: decoy 987 (dsDNA)
DNA 1: CCAGCGTACGTGCGTCAGG
DNA 2: CCTGACGCACGTACGCTGG
With B41, the binding signal came to 1.16 ratio.

B42: decoy 959 (dsDNA)
DNA 1: CCAGCGAACGTGCCTCAGG
DNA 2: CCTGAGGCACGTTCGCTGG
B42 gave a binding signal of 2.07 ratio.

B43: decoy 967 (dsDNA)
DNA 1: CCAGCATACGTGCCTCAGG
DNA 2: CCTGAGGCACGTATGCTGG
B43 displayed a binding signal of 1.53 ratio.

B44: decoy 801/802 (dsDNA)
DNA 1: GCCCTACGTGCTGTCTCA
DNA 2: TGAGACAGCACGTAGGGC
Turning to B44, the binding signal turned out to be 4 ratio.

B45: decoy 855/856 (dsDNA)
DNA 1: GTGTGTACGTGCAGGAAA
DNA 2: TTTCCTGCACGTACACAC
Regarding B45, the binding signal was 1.07 ratio.

B46: decoy 911 (dsDNA)
DNA 1: CACAGCGTACGTGCTGTCTCA
DNA 2: TGAGACAGCACGTACGCTGTG
For B46, the binding signal stood at 1.16 ratio.

B47: decoy 831/832 (dsDNA)
DNA 1: TCCAATACGTGCAGTACT
DNA 2: AGTACTGCACGTATTGGA
Turning to B47, the binding signal is 3.36 ratio.

The values are drawn from patent US20050215503, “HIF oligonucleotide decoy molecules” (published 2005).
